Patent EP4667483A1 (JCR Pharmaceuticals Co., Ltd., dated 2024)
Numbered stars: 1 amine (or outer) side, 2 acyl side, 3 side chain; on linkers, the order of the positions; unused ones are H or OH. Bridge positions count the residues as written; N and C are the ends. Square brackets hold non-standard residues; d marks the D form. Primed or numbered codes have the meaning given here. Ends that are not written are not given here. * marks the point of attachment. F4aao = 4-(carboxymethoxy)-L-phenylalanine, O=C([C@H](Cc1ccc(OCC(=O)[*:3])cc1)N[*:1])[*:2]; NH(1-deoxy-D-glucityl) = OC[C@@H](O)[C@@H](O)[C@H](O)[C@@H](O)CN*; PEG4c = amino-tetraoxa (PEG4) carboxylic acid spacer; NMePhe(4-COOH) = CN[C@@H](Cc1ccc(C(=O)O)cc1)C(=O)O; Tyr(Me) = COc1ccc(C[C@H](N[*:1])C(=O)[*:2])cc1; NMePhe(3-Cl) = CN[C@@H](Cc1cccc(Cl)c1)C(=O)O; Piperazinyl(4-CH2COOH) = O=C(O)CN1CCN(*)CC1; 3Pal(6-NH2) = Nc1ccc(C[C@H](N)C(=O)O)cn1; NMeW = CN[C@@H](Cc1c[nH]c2ccccc12)C(=O)O; Lys(N3) = [N-]=[N+]=NCCCC[C@H](N)C(=O)O; NMeY = CN[C@@H](Cc1ccc(O)cc1)C(=O)O; NMeF = CN[C@@H](Cc1ccccc1)C(=O)O; F3COO(PEG4c) = not defined here; PEG4c(3) = PEG4 linker acid; PEG4c″ = not defined here

B1: 894_0603 (peptide)
peptide: {CH2CO}-AV[NMeF]VWN[3Pal(6-NH2)]YIIKRY[NMePhe(4-COOH)]C
modifications: thioether N-15; not fully specified (C-terminus)
B2: 894_0604 (peptide)
peptide: {CH2CO}-AV[NMeF]V[NMeW]N[3Pal(6-NH2)]YIIKRY[NMePhe(4-COOH)]C
modifications: thioether N-15; not fully specified (C-terminus)
B3: 894_3491 (peptide)
peptide: {CH2CO}-AV[NMeF]VWNRYIIRR[F3COO(PEG4c)][NMePhe(4-COOH)]CG[Lys(N3)]-NH2
modifications: thioether N-15; reading uncertain
B4: 894_3488 (peptide)
peptide: AVXVXNYYIIKRXXC
modifications: as printed: A-V-MeF-V-MeW-N-Y-Y-I-I-K-R-F3COO(PEG4c)-MeF4COO-C; linker G-KN3-NH2; cyclic (ClAc-Ala1 thioether to Cys15)
B5: 894_3486 (peptide)
peptide: {CH2CO}-AV[NMeF]V[NMeW]N[3Pal(6-NH2)]YIIKRY[NMePhe(4-COOH)]CG[Lys(N3)]-NH2
modifications: thioether N-15
SMILES: CC[C@H](C)[C@@H]1NC(=O)[C@H](Cc2ccc(O)cc2)NC(=O)[C@H](Cc2ccc(N)nc2)NC(=O)[C@H](CC(N)=O)NC(=O)[C@H](Cc2c[nH]c3ccccc23)N(C)C(=O)[C@H](C(C)C)NC(=O)[C@H](Cc2ccccc2)N(C)C(=O)[C@H](C(C)C)NC(=O)[C@H](C)NC(=O)CSC[C@@H](C(=O)NCC(=O)N[C@@H](CCCCN=[N+]=[N-])C(N)=O)NC(=O)[C@H](Cc2ccc(C(=O)O)cc2)N(C)C(=O)[C@H](Cc2ccc(O)cc2)NC(=O)[C@H](CCCNC(=N)N)NC(=O)[C@H](CCCCN)NC(=O)[C@H]([C@@H](C)CC)NC1=O
B6: 894_3498 (peptide)
peptide: AVXVXNXYIIKRYXC
modifications: as printed: A-V-MeF-V-MeW-N-3Py6NH2-Y-I-I-K-R-Y-MeF4COO-C; linker G-de-de-de-ds-ds-KN3-NH2; cyclic (ClAc-Ala1 thioether to Cys15)
B7: 894_0644 (peptide)
peptide: {CH2CO}-AV[NMePhe(3-Cl)]V[NMeW]NY[F4aao]IIKRF[NMeY]C-{PEG4c(3)-NH2}
modifications: thioether N-15
B8: 894_0647 (peptide)
peptide: {CH2CO}-AV[NMePhe(3-Cl)]V[NMeW]NY[F4aao]IIKRF[NMePhe(4-COOH)](PEG4c(3))C-{PEG4c(3)-NH2}
modifications: thioether N-15
B9: 894_0636 (peptide)
peptide: AVXVXNYXIIKRFXC
modifications: as printed: A-V-MeF3C-V-MeW-N-Y-F4OMe-I-I-K-R-F-MeY-C; linker PEG4c-NH2; cyclic (ClAc-Ala1 thioether to Cys15)
B10: 894_0642 (peptide)
peptide: {CH2CO}-AV[NMePhe(3-Cl)]V[NMeW]NR[Tyr(Me)]IIQRF[NMeY]C-{PEG4c(3)-NH2}
modifications: thioether N-15
B11: 894_0637 (peptide)
peptide: AVXVXNYXIIQRFXC
modifications: as printed: A-V-MeF3C-V-MeW-N-Y-F4OMe-I-I-Q-R-F-MeY-C; linker PEG4c-NH2; cyclic (ClAc-Ala1 thioether to Cys15)
B12: 894_0641 (peptide)
peptide: {CH2CO}-AV[NMePhe(3-Cl)]V[NMeW]NR[Tyr(Me)]IIKRF[NMeY]C-{PEG4c″-NH2}
modifications: thioether N-15; reading uncertain
B13: 894_0510 (SEQ ID NO: 37) (peptide)
peptide: {CH2CO}-AV[NMePhe(3-Cl)]VWNY[F4aao](Piperazinyl(4-CH2COOH))IIE(NH(1-deoxy-D-glucityl))QF[NMeY]C-{PEG4c-NH2}
modifications: thioether N-15

molecular target: T1, human transferrin receptor (hTfR) (human, UniProt P02786 89-760); test: SPR, KD at pH 6.0 over KD at pH 7.4
T1 construct: Recombinant hTfR; at pH 7.4 captured on the chip by an anti-His tag antibody, at pH 6.0 immobilized on an NTA chip, so it carries a His tag; also called human TfR; TfR1
T1 sequence (P02786 89-760 limits assumed): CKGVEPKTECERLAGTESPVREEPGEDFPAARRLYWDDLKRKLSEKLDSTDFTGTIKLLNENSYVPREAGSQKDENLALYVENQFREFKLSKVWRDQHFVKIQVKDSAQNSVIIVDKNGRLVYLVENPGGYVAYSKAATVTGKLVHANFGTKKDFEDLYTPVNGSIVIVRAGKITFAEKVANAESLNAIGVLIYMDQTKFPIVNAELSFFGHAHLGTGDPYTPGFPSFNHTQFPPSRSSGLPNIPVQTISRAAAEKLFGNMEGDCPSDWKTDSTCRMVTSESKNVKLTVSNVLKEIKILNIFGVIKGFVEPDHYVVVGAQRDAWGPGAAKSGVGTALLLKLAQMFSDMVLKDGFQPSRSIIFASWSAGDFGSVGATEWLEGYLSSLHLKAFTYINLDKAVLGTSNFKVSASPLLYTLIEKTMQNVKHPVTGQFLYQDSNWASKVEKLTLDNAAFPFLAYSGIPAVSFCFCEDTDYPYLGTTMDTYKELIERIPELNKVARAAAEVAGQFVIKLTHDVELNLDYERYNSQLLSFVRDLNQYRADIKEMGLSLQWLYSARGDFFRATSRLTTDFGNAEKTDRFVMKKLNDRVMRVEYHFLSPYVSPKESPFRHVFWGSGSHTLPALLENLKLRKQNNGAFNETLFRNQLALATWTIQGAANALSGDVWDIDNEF

Row | Binder | dependency KD pH6.0/7.4
1 | B1 | 4.79
2 | B2 | 4.76

molecular target: T1, human transferrin receptor (hTfR); test: SPR (Biacore T200), pH 7.4, hTfR on chip

Row | Binder | Kd
3 | B3 | 214 nM
4 | B4 | 1.6 nM
5 | B5 | 2.94 nM
6 | B6 | 18.8 nM

molecular target: T1, human transferrin receptor (hTfR); test: SPR (Biacore T200), pH 6.0, hTfR on chip

Row | Binder | Kd
7 | B1 | 35 nM
8 | B2 | 16.7 nM

molecular target: T1, human transferrin receptor (hTfR); test: SPR, KD at pH 6.0 over KD at pH 7.4; remark: another data set of the same source

Row | Binder | dependency KD pH6.0/7.4
9 | B7 | 2.37
10 | B8 | 5.35
11 | B9 | 3.58
12 | B10 | 3.67
13 | B11 | 5.66
14 | B12 | 3.49

molecular target: T2, human transferrin receptor (hTfR) (human, UniProt P02786 89-760); test: SPR, KD pH 6.0 / KD pH 7.4
T2 construct: a His tag is implied by the NTA chip and the anti-His capture; also called human TfR; TfR1
T2 sequence (P02786 89-760 limits assumed): as above

Row | Binder | dependency KD pH6.0/7.4
15 | B13 | 18.1

molecular target: T1, human transferrin receptor (hTfR); test: SPR, koff at pH 6.0 over koff at pH 7.4

Row | Binder | dependency koff pH6.0/7.4
16 | B3 | 2.44
17 | B4 | 5.15
18 | B5 | 8.92
19 | B6 | 10.8

molecular target: T1, human transferrin receptor (hTfR); test: SPR, koff at pH 6.0 over koff at pH 7.4; remark: another data set of the same source

Row | Binder | dependency koff pH6.0/7.4
20 | B1 | 11.3
21 | B2 | 7.83

molecular target: T1, human transferrin receptor (hTfR); test: SPR, KD at pH 6.0 over KD at pH 7.4; remark: another data set of the same source

Row | Binder | dependency KD pH6.0/7.4
22 | B3 | 3.73
23 | B4 | 3.22
24 | B5 | 4.73
25 | B6 | 7.71

molecular target: T2, human transferrin receptor (hTfR); test: SPR, koff pH 6.0 / koff pH 7.4

Row | Binder | dependency koff pH6.0/7.4
26 | B13 | 33.9

molecular target: T1, human transferrin receptor (hTfR); test: SPR (Biacore T200), pH 6.0, hTfR on chip; remark: another data set of the same source

Row | Binder | Kd
27 | B7 | 0.764 nM
28 | B8 | 0.76 nM
29 | B9 | 0.81 nM
30 | B10 | 75.5 nM
31 | B11 | 4.86 nM
32 | B12 | 13.3 nM

molecular target: T1, human transferrin receptor (hTfR); test: SPR, koff at pH 6.0 over koff at pH 7.4; remark: another data set of the same source

Row | Binder | dependency koff pH6.0/7.4
33 | B7 | 4.92
34 | B8 | 9.27
35 | B9 | 5.55
36 | B10 | 4.85
37 | B11 | 9.23
38 | B12 | 3.44

molecular target: T1, human transferrin receptor (hTfR); test: SPR (Biacore T200), pH 7.4, hTfR on chip; remark: another data set of the same source

Row | Binder | Kd
39 | B1 | 7.31 nM
40 | B2 | 3.51 nM

molecular target: T1, human transferrin receptor (hTfR); test: SPR (Biacore T200), pH 6.0, hTfR on chip; remark: another data set of the same source

Row | Binder | Kd
41 | B3 | 799 nM
42 | B4 | 5.15 nM
43 | B5 | 13.9 nM
44 | B6 | 145 nM

molecular target: T1, human transferrin receptor (hTfR); test: SPR (Biacore T200), pH 7.4, hTfR on chip; remark: another data set of the same source

Row | Binder | Kd
45 | B7 | 0.322 nM
46 | B8 | 0.142 nM
47 | B9 | 0.226 nM
48 | B10 | 20.6 nM
49 | B11 | 0.859 nM
50 | B12 | 3.81 nM

molecular target: T2, human transferrin receptor (hTfR); test: SPR, pH 6.0

Row | Binder | Kd
51 | B13 | 27.9 nM

molecular target: T2, human transferrin receptor (hTfR); test: SPR, pH 7.4

Row | Binder | Kd
52 | B13 | 1.54 nM
